In assay [1] the target is T1, biotinylated partial peptide GRGDSVVYGLR of human osteopontin (human).
T1 construct: Captured on a BIACORE sensor chip SA (23 RU)
T1 peptide: Biotin-GRGDSVVYGLR
The assay is described as follows: SPR BIACORE-2000, biotinylated peptide on sensor chip SA, antibody as analyte, global fitting 1:1 (Langmuir). On the procedure: The KD value of the chimera 2K1 antibody was assayed in the following manner. First, a partial peptide GRGDSV-VYGLR (residues 7–17 of SEQ ID NO: 1) of the human osteopontin was biotinylated with a biotinylation kit (Dojindo Corporate). A sensor chip SA was set on BIA-CORE-2000, to bind 23 RU of a ligand (Bin-GRGDSV-VYGLR)(residues 7–17 of SEQ ID NO: 1). […] The data of these sensor grams were analyzed by global fitting at 1:1 (Langmuir) binding by a BIACORE analysis software BIA Evaluation Version 3.0. FIG. 6a is a sensor gram at various concentrations of the murine 2K1 antibody. FIG. 6b is a sensor gram at various concentrations of the chimera 2K1 antibody.
As the results of the measurement, the KD value of the murine 2K1 antibody was 1.2 ×10^-10 M, while the KD value of the chimera 2K1 antibody was 9.2 ×10^-11 M. No reduction of the affinity of the chimera 2K1 antibody was observed due to the chimera preparation of the murine 2K1 antibody.

Another assay deals with T2, CHO/OPN-a (human, UniProt P10451 17-314, sugar chain-bound type (glycosylated)).
T2 construct: mature; also called full-length OPN
The assay is described as follows: Western blotting.

Another assay has as its target T3, GST-OPN-c (human, UniProt P08515 1-218 = GST; P10451 1-287).
T3 construct: Isoform c of human osteopontin; made in E. coli; also called GST fusion protein of human osteopontin-c; not shown: vector-encoded junction between GST and OPN not described
The assay is described as follows: Western blotting.

For assay [2], the target named is thrombin-cleaved OPN (human) (UniProt P10451). Description: cell-based or functional assay.
The target in assay [3] is T4, BSA-crosslinked osteopontin peptide BSA-CVDTYDGRGDSVVYGLRS (human, also: crosslinked to BSA, linkage chemistry not given here).
T4 construct: Peptide carries an added N-terminal cysteine; immobilized on a microtiter plate as BSA conjugate; also called Peptide 1
T4 peptide: {BSA}-CVDTYDGRGDSVVYGLRS
Description: ELISA on a plate with BSA-CVDTYDGRGDSVVYGLRS, detection with protein A-HRP and TMB, OD450.

Another assay addresses T5, bovine serum albumin (bovine, UniProt P02769 25-607).
T5 construct: also called BSA
Description: ELISA on a plate with BSA alone, detection with protein A-HRP and TMB, OD450.

In assay [4] the target is BSA-crosslinked osteopontin peptide (BSA-CVDTYDGRGDSVVYGLRS) (Homo sapiens, UniProt P10451). The assay is described as follows: ELISA binding to osteopontin peptide. The text has this:
Based on the concentrations of the humanized 2K1 antibody and the chimera 2K1 antibody as determined in Example 13, the binding activities of the humanized 2K1 antibody and the chimera 2K1 antibody with osteopontin peptide (CVDTYDGRGDSVVYGLRS) (SEQ ID NO: 1) were compared with reference to the ELISA of Kon et al. (Journal of Cellular […]: 420–432 (2002)).
Dilution series of the humanized 2K1 antibody and the chimera 2K1 antibody reacted on a microtiter plate with BSA-crosslinked osteopontin peptide (BSA-CVDTYDGRGDSVVYGLRS)(SEQ ID NO: 1) immobilized thereon. Then, the antibodies bound to BSA-CVDTYDGRGDSVVYGLRS (SEQ ID NO: 1) reacted with protein A-HRP, and finally with TMB (Dojindo Corporate), to measure the absorbance at a wavelength of 450 nm.
Additionally, reaction on a plate with only BSA immobilized thereon as a negative control was also measured in the same manner.
As a negative control, additionally, the binding activity of the chimera 2K1 antibody to BSA (open circle) and the binding activity of the humanized 2K1 antibody to BSA (open square) are also shown.

No end group written: not given here. *: point of attachment. Biotin = O=C1N[C@H]2[C@H](CS[C@H]2CCCCC(=O)*)N1

Sequence of thrombin-cleaved OPN (human) (P10451 17-168 limits assumed, form in doubt, chain 1 of 2): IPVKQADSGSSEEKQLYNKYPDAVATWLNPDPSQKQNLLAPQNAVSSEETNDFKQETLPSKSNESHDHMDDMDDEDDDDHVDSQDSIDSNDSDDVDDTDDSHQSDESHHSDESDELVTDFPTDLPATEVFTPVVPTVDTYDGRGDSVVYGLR
Sequence of thrombin-cleaved OPN (human) (P10451 169-314 limits assumed, form in doubt, chain 2 of 2): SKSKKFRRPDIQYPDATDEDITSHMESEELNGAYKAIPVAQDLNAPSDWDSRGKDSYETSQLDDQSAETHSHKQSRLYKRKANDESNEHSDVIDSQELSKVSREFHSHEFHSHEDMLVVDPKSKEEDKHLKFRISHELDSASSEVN
T5 sequence (P02769 25-607 limits assumed): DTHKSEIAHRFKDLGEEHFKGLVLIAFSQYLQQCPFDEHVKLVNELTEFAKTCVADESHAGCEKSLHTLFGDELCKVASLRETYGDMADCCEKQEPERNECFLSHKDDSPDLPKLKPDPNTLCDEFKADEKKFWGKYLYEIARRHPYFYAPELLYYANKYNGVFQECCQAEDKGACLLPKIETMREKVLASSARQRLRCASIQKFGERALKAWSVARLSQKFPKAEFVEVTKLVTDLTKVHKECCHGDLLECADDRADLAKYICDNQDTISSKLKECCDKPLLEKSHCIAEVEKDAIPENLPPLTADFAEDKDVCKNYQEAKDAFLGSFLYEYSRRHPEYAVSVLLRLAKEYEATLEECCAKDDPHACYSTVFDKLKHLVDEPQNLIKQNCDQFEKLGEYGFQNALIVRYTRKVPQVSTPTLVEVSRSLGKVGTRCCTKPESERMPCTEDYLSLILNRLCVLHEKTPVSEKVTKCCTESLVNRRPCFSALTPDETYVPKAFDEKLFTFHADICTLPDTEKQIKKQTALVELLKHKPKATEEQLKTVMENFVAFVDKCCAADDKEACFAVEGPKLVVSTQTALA
T3 sequence (P08515 1-218, tags or fused parts left off): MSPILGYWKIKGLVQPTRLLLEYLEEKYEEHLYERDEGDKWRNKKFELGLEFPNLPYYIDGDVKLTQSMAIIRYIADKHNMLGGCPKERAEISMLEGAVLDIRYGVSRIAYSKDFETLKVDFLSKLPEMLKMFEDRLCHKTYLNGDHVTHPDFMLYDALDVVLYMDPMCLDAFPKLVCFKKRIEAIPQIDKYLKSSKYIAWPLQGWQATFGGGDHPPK
T2 sequence (P10451 17-314): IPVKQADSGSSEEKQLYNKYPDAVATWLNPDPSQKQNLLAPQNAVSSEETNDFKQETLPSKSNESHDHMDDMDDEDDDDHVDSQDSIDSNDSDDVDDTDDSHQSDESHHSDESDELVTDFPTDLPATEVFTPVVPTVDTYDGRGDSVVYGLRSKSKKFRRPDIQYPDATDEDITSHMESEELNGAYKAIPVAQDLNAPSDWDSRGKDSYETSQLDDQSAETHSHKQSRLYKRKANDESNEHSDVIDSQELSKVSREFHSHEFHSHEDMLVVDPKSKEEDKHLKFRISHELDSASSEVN

B1: murine monoclonal antibody 2K1 (antibody, V domains shown)
VH: QVQLQQSGAELVRPGASVKLSCKALGYTFTDYEMHWVKQTPVHGLEWIGAIHPGRGGTAYNQKFKGKATLTADKSSSTAYMELSSLTSEDSAVYYCTRITGYFDVWGAGTTVTVSS
VL: DVLMTQTPLSLPVSLGDQASISCRSSQSIVHSNGNTYLEWYLQKPGQSPKLLIYKVSNRFSGVPDRFSGSGSGTDFTLKISRVEAEDLGVYYCFQGSHVPLTFGAGTKLELKR
notes: also called murine 2K1 antibody; murine antibody 2K1
The molecule B1 gave a Kd in assay [1] of 0.12 nM. Further, in the assay with CHO/OPN-a, the binding result is “binds”. Also, in the assay with GST-OPN-c, the binding result was “binds”. In assay [2], this molecule yielded a Mean migrating cell counts per 1 mm^3; monocyte; thrombin-cleaved OPN 10 µg/mL, murine 2K1 antibody 0.4 µg/mL (cells per 1 mm^3) of 258; a Mean migrating cell counts per 1 mm^3; monocyte; thrombin-cleaved OPN 10 µg/mL, murine 2K1 antibody 2 µg/mL (cells per 1 mm^3) of 257; a Mean migrating cell counts per 1 mm^3; monocyte; thrombin-cleaved OPN 10 µg/mL, murine 2K1 antibody 10 µg/mL (cells per 1 mm^3) of 160; a Mean migrating cell counts per 1 mm^3; monocyte; thrombin-cleaved OPN 10 µg/mL, murine 2K1 antibody 50 µg/mL (cells per 1 mm^3) of 75. Also, in assay [2], the Mean migrating cell counts per 1 mm^3; neutrophil; thrombin-cleaved OPN 10 µg/mL, murine 2K1 antibody 0.4 µg/mL (cells per 1 mm^3) was 567; the Mean migrating cell counts per 1 mm^3; neutrophil; thrombin-cleaved OPN 10 µg/mL, murine 2K1 antibody 2 µg/mL (cells per 1 mm^3) worked out at 550; the Mean migrating cell counts per 1 mm^3; neutrophil; thrombin-cleaved OPN 10 µg/mL, murine 2K1 antibody 10 µg/mL (cells per 1 mm^3) came to 450; the Mean migrating cell counts per 1 mm^3; neutrophil; thrombin-cleaved OPN 10 µg/mL, murine 2K1 antibody 50 µg/mL (cells per 1 mm^3) came to 427.

B2: humanized 2K1 antibody (antibody, V domains shown)
VH: QVQLVQSGAEVKKPGSSVKVSCKASGGTFSDYEMHWVRQAPGQGLEWMGAIHPGRGGTAYNQKFKGRVTITADKSTSTAYMELSSLRSEDTAVYYCARITGYFDVWGQGTTVTVSS
VL: DVVMTQSPLSLPVTLGQPASISCRSSQSIVHSNGNTYLEWYLQKPGQSPQLLIYKVSNRFSGVPDRFSGSGSGTDFTLKISRVEAEDVGVYYCFQGSHVPLTFGQGTKLEIKR
notes: Human Igγ1 / Igκ constant regions (vectors AG-γ1 and AG-κ); Tested as CHO-DG44 culture supernatant; also called R2K1 antibody
B2: the binding result in assay [3] is listed as “binds”; in the assay with bovine serum albumin, “no binding (tested: 50 ng/ml)”.

B3: mouse-human chimera 2K1 antibody (antibody, V domains shown)
VH: QVQLQQSGAELVRPGASVKLSCKALGYTFTDYEMHWVKQTPVHGLEWIGAIHPGRGGTAYNQKFKGKATLTADKSSSTAYMELSSLTSEDSAVYYCTRITGYFDVWGAGTTVTVSS
VL: DVLMTQTPLSLPVSLGDQASISCRSSQSIVHSNGNTYLEWYLQKPGQSPKLLIYKVSNRFSGVPDRFSGSGSGTDFTLKISRVEAEDLGVYYCFQGSHVPLTFGAGTKLELKR
notes: Expressed in CHO-DG44; also called C2K1 antibody; 2K1 chimera antibody
B3 had a Kd in assay [1] of 0.092 nM. The binding result is listed as “binds” in assay [3] and “no binding (tested: 50 ng/ml)” in the assay with bovine serum albumin.

B4: humanized 2K1 antibody: humanized antibody with CDRs of murine 2K1; VH SEQ ID NO: 28, VL SEQ ID NO: 30, human Igγ1/Igκ (antibody, V domains shown)
VH: MDWTWRVFCLLAVAPGAHSQVQLVQSGAEVKKPGSSVKVSCKASGGTFSDYEMHWVRQAPGQGLEWMGAIHPGRGGTAYNQKFKGRVTITADKSTSTAYMELSSLRSEDTAVYYCARITGYFDVWGQGTTVTVSS
VL: MGWSCIILFLVATATGVHSDVVMTQSPLSLPVTLGQPASISCRSSQSIVHSNGNTYLEWYLQKPGQSPQLLIYKVSNRFSGVPDRFSGSGSGTDFTLKISRVEAEDVGVYYCFQGSHVPLTFGQGTKLEIKR
modifications: human IgG1/kappa constant regions
Regarding B4, the “antigen binding activity compared with the original murine 2K1 antibody” value in assay [4] is “identical to that of the original murine 2K1 antibody”. For the same molecule, the “binding activity to BSA-CVDTYDGRGDSVVYGLRS” value in assay [4] (ELISA, absorbance 450 nm, FIG. 13) was “had binding activities”. In addition, in assay [4] (ELISA, plate with only BSA immobilized), the “binding activity to BSA (negative control plate)” value is given as “not to BSA”. Also, the “comparison of binding activities of both antibodies to BSA-CVDTYDGRGDSVVYGLRS” value in assay [4] (humanized versus chimera 2K1 antibody) is listed as “at the same level”.

Values taken from patent publication US7241873B2, “Recombinant anti-osteopontin antibody and use thereof” (Juridical Foundation the Chemo-sero-therapeutic Research …, priority 2001, dated 2007).
